Source: article PMC3796484

Target: spliced X-box binding protein (Xbp1s), P17861-2
Experiment: two-hybrid assay (Gal4 UAS-CAT reporter in transfected cells)
Settings: CAT activity normalized to β-galactosidase internal control; P=.008; parent: est. 3.4; read off a plot

spliced X-box binding protein (Xbp1s), P17861-2, sequence (P17861 other isoform, or with tags, fused parts or gaps): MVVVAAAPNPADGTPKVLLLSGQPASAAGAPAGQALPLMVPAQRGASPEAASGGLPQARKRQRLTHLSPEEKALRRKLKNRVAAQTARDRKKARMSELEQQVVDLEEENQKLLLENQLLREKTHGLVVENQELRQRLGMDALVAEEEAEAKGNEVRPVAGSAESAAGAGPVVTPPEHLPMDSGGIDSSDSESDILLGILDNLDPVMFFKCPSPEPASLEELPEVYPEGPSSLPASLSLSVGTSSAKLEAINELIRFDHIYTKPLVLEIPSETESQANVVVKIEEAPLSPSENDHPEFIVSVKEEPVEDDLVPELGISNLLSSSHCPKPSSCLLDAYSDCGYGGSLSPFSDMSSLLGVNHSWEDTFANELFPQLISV

## Zhangfei linked to the DNA-binding domain of yeast GAL4 (from UniProt Q9NS37) ZF(L/A)
  other: Ratio (with:without activator): 1
